Results as given in patent US20110165078A1 (UNIVERSITY COURT OF THE UNIVERSITY OF ABERDEEN, published 2011).

Legend:
[1] = target: T1, rat synaptophysin (in rat hepatic stellate cells) (rat, UniProt P07825 1-307); experiment: Western blot of cell extracts (5 µg/lane) probed with C1-3 scAb
T1 construct: In rat HSC extracts on a Western blot; also called synaptophysin in rat HSCs; rHSCs

[2] = target: T2, target peptide-BSA conjugate (…-BSA) (human; bovine, UniProt P02769 25-607, chemically conjugated to bovine serum albumin (BSA) using 3 maleimidoacetic acid N-hydroxysuccinimide (MBS)); experiment: ELISA on coated peptide-BSA or BSA, detection with HRP anti-human Cκ
T2 construct: Typically on average ~4 peptide molecules per molecule of albumin; also called BSA-target peptide; BSA-peptide 2
T2 sequence (P02769 25-607 limits assumed): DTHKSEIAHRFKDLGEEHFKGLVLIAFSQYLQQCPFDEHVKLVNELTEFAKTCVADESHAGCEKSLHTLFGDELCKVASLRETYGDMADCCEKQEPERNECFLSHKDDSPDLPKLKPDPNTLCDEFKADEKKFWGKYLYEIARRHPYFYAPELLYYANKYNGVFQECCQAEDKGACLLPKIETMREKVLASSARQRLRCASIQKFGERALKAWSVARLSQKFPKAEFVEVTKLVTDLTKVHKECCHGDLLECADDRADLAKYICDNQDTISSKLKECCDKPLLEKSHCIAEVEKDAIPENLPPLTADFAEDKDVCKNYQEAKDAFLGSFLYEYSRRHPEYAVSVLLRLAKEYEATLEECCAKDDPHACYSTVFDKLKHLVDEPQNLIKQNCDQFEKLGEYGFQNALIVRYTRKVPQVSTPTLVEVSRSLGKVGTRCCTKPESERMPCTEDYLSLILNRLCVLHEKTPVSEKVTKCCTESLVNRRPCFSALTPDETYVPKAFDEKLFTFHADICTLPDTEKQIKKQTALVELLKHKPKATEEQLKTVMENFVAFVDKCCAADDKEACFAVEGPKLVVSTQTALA

T1 sequence (P07825 whole entry): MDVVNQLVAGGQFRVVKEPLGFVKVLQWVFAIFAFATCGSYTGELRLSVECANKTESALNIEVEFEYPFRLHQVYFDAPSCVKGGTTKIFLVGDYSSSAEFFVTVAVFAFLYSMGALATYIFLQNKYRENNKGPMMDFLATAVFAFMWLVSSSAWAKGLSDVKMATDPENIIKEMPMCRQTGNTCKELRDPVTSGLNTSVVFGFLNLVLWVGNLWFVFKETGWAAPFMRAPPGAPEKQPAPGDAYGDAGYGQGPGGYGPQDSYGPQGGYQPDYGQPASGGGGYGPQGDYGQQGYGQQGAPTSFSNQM

B1: C1-3 scAb (scFv)
scFv: MAEVQLLESGGGLVQPGGSLRLSCAASGFTFSSYAMSWVRQAPGKGLEWVSTIAASGPSTGYADSVKGRFTISRDNSKNTLYLQMNSLRAEDTAVYYCAKTTAKFDYWGQGTLVTVSSGGGGSGGGGSGGGGSTDIQMTQSPSSLSASVGDRVTITCRASQSISSYLNWYQQKPGKAPKLLIYSASRLQSGVPSRFNGSGSGTDFTLTISSLQPEDFATYYCQQLQRKPTTFGQGTKVEIKRGAAAPSVFIFPPSDEQLKSGTASVVCLLNNFYPREAKVQWKVDNALQSGNSQESVTEQDSKDSTYSLSSTLTLSKADYEKHKVYACEVTHQGLSSPVTKSFNRGESHHHHHH
notes: Single-chain antibody fragment: scFv fused to human C kappa and a hexa-histidine tag, expressed from pIMS147 in E. coli XL-1 blue; also called C1-3 scFv; clone pIMS147 C1-3
binding result [1]: no binding
fold more scAb bound to peptide-BSA than to BSA alone [2]: ~8 times
